The text below walks through data of US20210221886A1.

This test deals with human CD47 antigen (human) (UniProt Q08722). In words: flow cytometry on human red blood cells at the maximal binding concentration; reference Hu5F9. In general terms: Flow cytometry measures light scatter and fluorescence of single cells or particles in a stream.

Take anti-CD47 IgG4 AO-176 (antibody): the percent reduction of RBC binding with respect to Hu5F9 was 80%.
